{"source": "patent US20190330333A1", "about": "(KAO, published 2019)", "key": {"[1]": {"target": "T1, PEGylated N-terminus 15 amino acids of active GIP (GIP(1-15)), antigen (1) for measurement (also: PEGylated, position not given here)", "T1 construct": "Immobilized on the ELISA plate; The assay antigen carries no KLH; only the immunogen was KLH-linked; also called PEGylated GIP(1-15)", "T1 peptide": "YAEGTFISDYSIAMD", "assay": "ELISA, immobilized peptide antigen, hybridoma culture supernatant", "experimental": "(§1) The reaction between the hybridoma culture supernatant and the antigen (1) and (2) for measurement was evaluated by ELISA using immobilized antigen (1) and (2), and hybridomas that are positive for the antigen (1) and negative for the antigen (2) were selected as anti-active GIP monoclonal antibody-producing hybridomas.\n(§2) Antibody-producing hybridoma was cloned by culturing the hybridomas obtained above through a limiting dilution method to obtain single colonies, and single colony-forming wells were subjected to ELISA again to establish 9B9H5-B9 line, which produces an antibody that is positive for the antigen (1) and negative for the antigen (2) (WO 2016/104439)."}, "[2]": {"target": "T2, PEGylated N-terminus 13 amino acids of inactive GIP (GIP(3-15)), antigen (2) for measurement (also: PEGylated, position not given here)", "T2 construct": "Immobilized on the ELISA plate; also called PEGylated GIP(3-15)", "T2 peptide": "EGTFISDYSIAMD", "assay": "ELISA, immobilized peptide antigen, hybridoma culture supernatant", "experimental": "as §1, §2"}, "inactive GIP, GIP(3-42)": {"target": "T3, inactive GIP, GIP(3-42)", "T3 peptide": "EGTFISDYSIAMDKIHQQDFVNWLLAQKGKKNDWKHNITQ", "assay": "sandwich ELISA, anti-total GIP mAb capture, biotinylated antibody at 1 ug/mL as detection", "experimental": "(§3) The reactivity between the monoclonal antibody prepared in Production Example 1 and active GIP was confirmed by ELISA. The amino group of the anti-active GIP monoclonal antibody was biotinylated with NH2 group biotinylation kit (manufactured by Dojindo Laboratories). ELISA was performed using the produced biotinylated anti-active GIP monoclonal antibody at 1 μg/mL instead of a detection antibody, GIP detection antibody (biotinylated anti-total GIP monoclonal antibody), included in Human (total) GIP ELISA kit (manufactured by EMD Millipore Corporation). A […] dilution series of GIP(1-42) or GIP(3-42) was prepared in 6 steps (8.2 to 2000 pg/mL) with a 2000 pg/mL solution as the highest concentration. By using an anti-total GIP monoclonal antibody (included in Human GIP (total) ELISA kit manufactured by EMD Millipore Corporation) as a capture antibody, the biotinylated anti-active GIP monoclonal antibody as a detection antibody, and a peroxidase-streptavidin conjugate for detection, sandwich ELISA was conducted to prepare a calibration curve with GIP concentration on the X-axis and 450 nm-590 nm absorbance on the Y-axis (FIG. 1)."}, "active GIP, GIP(1-42)": {"target": "T4, active GIP, GIP(1-42)", "T4 construct": "The assay was built on a Human (total) GIP ELISA kit", "T4 peptide": "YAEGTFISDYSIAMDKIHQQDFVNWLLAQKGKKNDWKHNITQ", "assay": "sandwich ELISA, anti-total GIP mAb capture, biotinylated antibody at 1 ug/mL as detection, GIP 8.2 to 2000 pg/mL", "experimental": "as §3"}}, "note": "Where no end group is shown, it is not given here."}
{"binder": "anti-active GIP monoclonal antibody produced by hybridoma 9B9H5-B9 line (Production Example 1) (antibody, V domains shown, Mouse (BALB/c) hybridoma monoclonal antibody; Culture supernatant was used in the screening and cloning ELISA; also called anti-active GIP antibody) VH: QVQLQQPGAELVKPGASVKLSCKASGYTFTSFWMHWVIQRPGQGLEWIGEMNPSDGRTHFNEKFKTKATLTIDTSSNTAYMELNSLTSEDSAVYYCARRMEDWGQGTLVTVSA VL: DIKMTQSPSSMYASLGERVTITCKASQDINSYLGWFQQKPGKSPKTLIYGANRLVDGVPSRFSGSGSGQDYSLTISSLEYDDMGIYYCLQYDEFPLTFGAGTKLELKR", "values": [{"measurement": "binding result", "setting": "[1]", "result": "binds"}, {"measurement": "binding result", "setting": "[2]", "result": "no binding"}, {"measurement": "binding result", "setting": "inactive GIP, GIP(3-42)", "result": "no binding"}, {"measurement": "binding result", "setting": "active GIP, GIP(1-42)", "result": "binds"}]}
